One data set deals with T1, MukBtriple (MukB3X) (Escherichia coli, UniProt P22523 1-1486, D697K;D745K;E753K).
T1 sequence: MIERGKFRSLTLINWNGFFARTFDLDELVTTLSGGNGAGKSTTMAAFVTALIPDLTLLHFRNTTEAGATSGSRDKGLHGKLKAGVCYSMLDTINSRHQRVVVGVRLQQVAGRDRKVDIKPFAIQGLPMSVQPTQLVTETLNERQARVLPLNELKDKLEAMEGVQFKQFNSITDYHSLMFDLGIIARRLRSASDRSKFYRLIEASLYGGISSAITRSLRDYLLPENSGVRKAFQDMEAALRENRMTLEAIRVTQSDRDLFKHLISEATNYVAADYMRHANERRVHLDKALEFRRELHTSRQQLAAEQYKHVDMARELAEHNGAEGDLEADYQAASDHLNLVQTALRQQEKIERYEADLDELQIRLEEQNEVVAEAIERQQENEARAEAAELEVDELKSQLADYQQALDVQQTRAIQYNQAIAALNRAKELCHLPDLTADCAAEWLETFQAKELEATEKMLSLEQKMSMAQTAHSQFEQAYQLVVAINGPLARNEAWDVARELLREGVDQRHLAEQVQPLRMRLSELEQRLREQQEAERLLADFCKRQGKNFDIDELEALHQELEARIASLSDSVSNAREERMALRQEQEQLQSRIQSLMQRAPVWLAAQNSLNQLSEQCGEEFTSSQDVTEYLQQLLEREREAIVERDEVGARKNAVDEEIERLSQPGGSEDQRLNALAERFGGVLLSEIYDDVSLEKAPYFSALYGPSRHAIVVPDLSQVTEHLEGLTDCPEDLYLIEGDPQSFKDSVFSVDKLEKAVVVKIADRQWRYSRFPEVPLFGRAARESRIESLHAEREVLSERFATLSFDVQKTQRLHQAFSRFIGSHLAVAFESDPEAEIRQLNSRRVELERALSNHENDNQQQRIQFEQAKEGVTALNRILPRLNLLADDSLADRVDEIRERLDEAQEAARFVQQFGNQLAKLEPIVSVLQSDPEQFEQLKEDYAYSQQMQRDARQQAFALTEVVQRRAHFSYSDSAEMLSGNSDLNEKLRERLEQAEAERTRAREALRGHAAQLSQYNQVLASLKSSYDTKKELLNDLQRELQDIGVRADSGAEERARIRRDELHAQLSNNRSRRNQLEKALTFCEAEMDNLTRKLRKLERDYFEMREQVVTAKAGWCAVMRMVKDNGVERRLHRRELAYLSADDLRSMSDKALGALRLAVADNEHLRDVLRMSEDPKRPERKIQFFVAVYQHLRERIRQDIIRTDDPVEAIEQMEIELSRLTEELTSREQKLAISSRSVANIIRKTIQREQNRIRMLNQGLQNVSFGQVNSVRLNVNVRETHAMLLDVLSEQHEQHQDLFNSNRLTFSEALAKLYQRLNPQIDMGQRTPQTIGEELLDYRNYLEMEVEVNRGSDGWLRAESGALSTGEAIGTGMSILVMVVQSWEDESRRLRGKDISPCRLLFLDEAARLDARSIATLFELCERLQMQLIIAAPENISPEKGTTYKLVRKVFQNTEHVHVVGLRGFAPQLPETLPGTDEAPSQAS
Nature of the data set: DNA binding assay (method not stated in material); 0.5 mM Mg(OAc)2; apparent Kd; 50 mer binding: 50 mM HEPES-KOH pH 7.5, 10 mM DTT, 20 mM KCl, 0.5 mM Mg(OAc)2, 5 nM DNA; pull-down: same buffer plus 7.5% glycerol, 0.05% NP-40, loading at room temperature, assay at 37 C. The conditions noted are these: protein: recombinant; chain copies: 2; label: 5'-32P; blunt.

Data set [1] deals with T2, MukB (Escherichia coli, UniProt P22523 1-1486).
T2 sequence: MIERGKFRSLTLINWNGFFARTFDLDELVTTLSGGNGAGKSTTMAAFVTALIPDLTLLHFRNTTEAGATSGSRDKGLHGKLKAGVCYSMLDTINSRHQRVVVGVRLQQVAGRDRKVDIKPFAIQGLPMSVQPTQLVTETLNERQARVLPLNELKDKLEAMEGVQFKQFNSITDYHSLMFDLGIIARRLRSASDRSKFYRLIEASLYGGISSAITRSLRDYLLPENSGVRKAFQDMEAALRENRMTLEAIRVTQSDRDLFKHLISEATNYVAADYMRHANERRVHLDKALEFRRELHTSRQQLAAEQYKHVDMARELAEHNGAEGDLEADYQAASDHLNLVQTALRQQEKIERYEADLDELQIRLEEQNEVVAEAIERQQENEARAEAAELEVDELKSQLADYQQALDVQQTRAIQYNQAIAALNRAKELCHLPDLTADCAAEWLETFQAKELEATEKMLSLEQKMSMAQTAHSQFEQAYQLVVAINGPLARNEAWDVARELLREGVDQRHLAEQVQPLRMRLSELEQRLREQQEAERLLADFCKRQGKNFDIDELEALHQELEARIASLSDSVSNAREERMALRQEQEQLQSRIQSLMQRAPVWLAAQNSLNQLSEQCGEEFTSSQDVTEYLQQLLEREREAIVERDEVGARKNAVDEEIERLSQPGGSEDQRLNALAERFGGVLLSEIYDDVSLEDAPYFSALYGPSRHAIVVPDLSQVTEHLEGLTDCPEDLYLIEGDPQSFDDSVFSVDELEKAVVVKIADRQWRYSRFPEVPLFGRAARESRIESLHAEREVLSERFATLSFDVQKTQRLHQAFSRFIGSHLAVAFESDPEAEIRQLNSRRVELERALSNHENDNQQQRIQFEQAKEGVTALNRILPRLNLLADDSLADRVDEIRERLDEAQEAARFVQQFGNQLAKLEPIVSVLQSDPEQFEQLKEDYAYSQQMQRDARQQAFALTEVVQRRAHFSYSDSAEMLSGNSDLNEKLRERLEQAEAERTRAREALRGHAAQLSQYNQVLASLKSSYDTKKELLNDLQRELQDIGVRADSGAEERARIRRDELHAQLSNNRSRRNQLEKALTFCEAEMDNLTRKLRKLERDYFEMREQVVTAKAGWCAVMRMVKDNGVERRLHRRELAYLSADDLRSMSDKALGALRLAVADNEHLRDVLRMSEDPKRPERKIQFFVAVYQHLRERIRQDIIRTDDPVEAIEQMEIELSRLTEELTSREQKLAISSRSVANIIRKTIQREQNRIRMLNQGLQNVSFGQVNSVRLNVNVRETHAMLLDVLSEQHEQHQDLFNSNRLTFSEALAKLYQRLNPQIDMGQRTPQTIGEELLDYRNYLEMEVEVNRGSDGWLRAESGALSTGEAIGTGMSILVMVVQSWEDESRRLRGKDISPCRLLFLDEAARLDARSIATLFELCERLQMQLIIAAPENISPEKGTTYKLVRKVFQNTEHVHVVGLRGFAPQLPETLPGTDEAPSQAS
Described as above. The conditions noted are these: protein: recombinant; chain copies: 2; label: 5'-32P; blunt.

The target in data set [2] is T3, MukB (E. coli, UniProt P22523 1-1486).
T3 construct: MukB, SMC-like condensin of Escherichia coli; also called condensin MukB; wild-type MukB
T3 sequence (looked up): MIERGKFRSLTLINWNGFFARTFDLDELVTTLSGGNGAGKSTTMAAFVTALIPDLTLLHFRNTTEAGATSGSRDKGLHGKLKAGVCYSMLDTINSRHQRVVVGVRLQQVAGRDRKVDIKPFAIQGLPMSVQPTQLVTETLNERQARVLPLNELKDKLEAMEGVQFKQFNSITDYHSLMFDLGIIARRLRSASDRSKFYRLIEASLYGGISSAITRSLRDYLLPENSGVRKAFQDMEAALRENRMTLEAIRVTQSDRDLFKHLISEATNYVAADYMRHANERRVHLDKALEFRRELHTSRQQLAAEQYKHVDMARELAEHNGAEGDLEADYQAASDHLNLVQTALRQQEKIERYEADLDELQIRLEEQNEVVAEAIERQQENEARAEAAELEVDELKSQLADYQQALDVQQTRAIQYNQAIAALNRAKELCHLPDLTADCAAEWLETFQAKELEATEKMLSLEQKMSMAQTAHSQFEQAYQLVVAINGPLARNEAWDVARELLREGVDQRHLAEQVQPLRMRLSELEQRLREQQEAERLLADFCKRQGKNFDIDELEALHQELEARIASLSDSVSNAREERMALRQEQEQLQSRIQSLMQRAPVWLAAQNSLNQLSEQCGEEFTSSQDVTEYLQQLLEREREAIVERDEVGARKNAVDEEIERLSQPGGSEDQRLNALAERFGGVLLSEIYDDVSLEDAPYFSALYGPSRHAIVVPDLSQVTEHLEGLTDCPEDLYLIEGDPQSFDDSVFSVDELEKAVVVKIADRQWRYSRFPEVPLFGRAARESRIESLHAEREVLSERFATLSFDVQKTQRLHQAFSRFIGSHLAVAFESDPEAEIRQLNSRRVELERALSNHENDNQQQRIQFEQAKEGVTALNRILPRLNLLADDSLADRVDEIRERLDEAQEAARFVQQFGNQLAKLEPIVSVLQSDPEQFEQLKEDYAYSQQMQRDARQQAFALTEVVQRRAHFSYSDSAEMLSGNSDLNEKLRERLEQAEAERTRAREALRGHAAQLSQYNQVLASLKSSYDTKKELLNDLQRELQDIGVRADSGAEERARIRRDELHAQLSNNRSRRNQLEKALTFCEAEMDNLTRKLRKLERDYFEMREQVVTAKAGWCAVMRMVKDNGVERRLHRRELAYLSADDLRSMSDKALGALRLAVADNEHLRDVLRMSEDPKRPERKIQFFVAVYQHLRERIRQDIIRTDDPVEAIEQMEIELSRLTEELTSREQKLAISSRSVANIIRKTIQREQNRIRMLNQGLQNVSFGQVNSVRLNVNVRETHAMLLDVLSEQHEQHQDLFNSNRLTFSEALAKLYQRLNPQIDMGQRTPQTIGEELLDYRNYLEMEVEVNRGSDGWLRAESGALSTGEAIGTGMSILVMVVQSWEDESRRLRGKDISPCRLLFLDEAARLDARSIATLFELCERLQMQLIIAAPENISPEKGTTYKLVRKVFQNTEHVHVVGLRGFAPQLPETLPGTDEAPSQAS
Kind of data set: pull-down; MukB (125 nM) held on Dynabeads Protein A through affinity-purified MukB polyclonal antibodies; varying ParC; 50 mM HEPES-KOH pH 7.5, 50 mM KCl, 0.5 mM Mg(OAc)2, 7.5% glycerol, 0.05% IGEPAL, 15 min at 37°C; bound protein read from SDS-PAGE bands; fit to the Hill equation; KD dimer to dimer. The conditions noted are these: both partners purified.

B1: 50mer duplex DNA (dsDNA)
DNA 1: ATCTCGGGCTATTCTTTTGATTTATAAGGGATTTTGCCGATTTCGGAACC
DNA 2: GGTTCCGAAATCGGCAAAATCCCTTATAAATCAAAAGAATAGCCCGAGAT
Take B1: the Kd with MukBtriple (MukB3X) came out at 30 nM; with MukB [1], 120 nM.

B2: ParC subunit of topoisomerase IV (natural protein, E. coli, UniProt P0AFI2 1-752, looked up)
chain: MSDMAERLALHEFTENAYLNYSMYVIMDRALPFIGDGLKPVQRRIVYAMSELGLNASAKFKKSARTVGDVLGKYHPHGDSACYEAMVLMAQPFSYRYPLVDGQGNWGAPDDPKSFAAMRYTESRLSKYSELLLSELGQGTADWVPNFDGTLQEPKMLPARLPNILLNGTTGIAVGMATDIPPHNLREVAQAAIALIDQPKTTLDQLLDIVQGPDYPTEAEIITSRAEIRKIYENGRGSVRMRAVWKKEDGAVVISALPHQVSGARVLEQIAAQMRNKKLPMVDDLRDESDHENPTRLVIVPRSNRVDMDQVMNHLFATTDLEKSYRINLNMIGLDGRPAVKNLLEILSEWLVFRRDTVRRRLNYRLEKVLKRLHILEGLLVAFLNIDEVIEIIRNEDEPKPALMSRFGLTETQAEAILELKLRHLAKLEEMKIRGEQSELEKERDQLQGILASERKMNNLLKKELQADAQAYGDDRRSPLQEREEAKAMSEHDMLPSEPVTIVLSQMGWVRSAKGHDIDAPGLNYKAGDSFKAAVKGKSNQPVVFVDSTGRSYAIDPITLPSARGQGEPLTGKLTLPPGATVDHMLMESDDQKLLMASDAGYGFVCTFNDLVARNRAGKALITLPENAHVMPPVVIEDASDMLLAITQAGRMLMFPVSDLPQLSKGKGNKIINIPSAEAARGEDGLAQLYVLPPQSTLTIHVGKRKIKLRPEELQKVTGERGRRGTLMRGLQRIDRVEIDSPRRASSGDSEE
notes: ParC, breakage and reunion subunit of topoisomerase IV of Escherichia coli; also called wild-type ParC; Cwt
B2 yielded a Kd in the data set with MukB [2] of 115 nM.
